Assay: soluble on expression in E. coli; label from the status in PepcDB or PDB records

| Sequence | soluble on expression in E. coli |
| --- | --- |
| MGSDKIHHHHHHMAIAIDFGTSNTVIARWNPVTQQPETITLPGLSIQQSLNPPLIPSLVYVEDANQAKILIGQQVRDRGLDLKGDTRFFRSFKRGIGADIQGFLPELDGQIVTFEQVGQWFLTEVIQQLAPLEGGLDSLVLTVPVDSFEAYRYWLGQVCQALPVEQVRMLDEPTAAALGYGLADQEILLVVDFGGGTLDLSLVQLNKSAQTNTKPVGFLLKWGNKSLAEESKQKTKTARVLAKAGQNLGGTDIDNWLVDYFTKTQGLAVSPLTTRLAERIKIQLSTQNQASEVYFDDENFESYELELNRDTLESILKEHSFFEQLDDAMANLLQQARRQGIELADINAVLLVGGTVQLPAVQTWVKQYFQPDKIRCEKPFEAIAQGALQLSQGVEIKDFLYHSYGVRYWDRRNQRHSWHSIIKAGQGYPMTQPVELVLGASLENQPSIELILGELGTETGGTEVYFDGDRLITRRLDTGVTSVKPLNDKEGARTIAQLTPPGFPGSDRIKILFQVDEQRFLRITVEDLLTNDTLLENQLVAQLS | not soluble |
| MGHHHHHHGSRKGAELGILIKNADALEVAEKVTAVIFDKTGTLTKGKPEVTDLVPLNGDERELLRLAAIAERRSEHPIAEAIVKKALEHGIELGEPEKVEVIAGEGVVADGILVGNKRLMEDFGVAVSNEVELALEKLEREAKTAVIVARNGRVEGIIAVSDTLKESAKPAVQELKRMGIKVGMITGDNWRSAEAISRELNLDLVIAEVLPHQKSEEVKKLQAKEVVAFVGDGINDAPALAQADLGIAVGSGSDVAVESGDIVLIRDDLRDVVAAIQLSRKTMSKIK | soluble |
| MGSDKIHHHHHHVAASPLRGRTPHRRGPRACRRGPLPRVGAGGLRQMTATEAYLQKGWLRFAAEESIRDWAAHAQRCAETATADPAHAKWLDCEGTWFIGVDALPNDPDGRLPSGPPLEGAALDFIRAHFGEIPALHRAQLSVIYPGYPRPRRGESDAAFGYRCKRDGAHVDGIKIYGTARRRRVEEPHAWVLGLPLNKTSKNAAPLVVWEGSHLIMREAFRLAFEGIALEDWAHVDITDIYTAARREVFETCKRVEVHANPGEAYLMHRLCLHGVAPWADGASATDGAGRMIAYFRPEMPNWQAHWLSDL | not soluble |
| MIGIVAAFEKVKIPEMGKSFGTGWLPPLPSLKDYTEESAQIPEMAEKLGIPTSRKETKTLELPVSIDFRNWCSPIEDQMDLGSCTAHAGVGVVEYFERRAFGKHIDGSRFFVYKTTRNLMGVKGDTGAWLRNTMGALALCGVPPEKYFPYTSRKTPGPDGEPTFDDEPSSFVYSLADNFEALNYFCHDPQGMNLPPEDVILSVKKYLAAGIPSMFGFYGFPSFKDTDVKGGIPFPGPDERSIWGHAVVAVGYDDNMKIRNTLSNKETTGAFLIRNSWGTAWGDKGYGWLPYEYALNKFALDFWSLISMKWVETGNFGLELESSRSRARETLSRDMPLPHALEHHHHHH | soluble |
| MGSDKIHHHHHHMINNYLERQIKENFPYQPTFEQEIAVKSLSEFLLSTLADEVFILRGYAGTGKTSLVGALVKTMDQLQQKAVLLAPTGRAAKVFSSYAGHPAFTIHKKIYRQQSFSNETSNFSINDNLATNTLFIVDEASMISNEGLSGSMFGTGRLLDDLIQFVYSGQGCRLLLMGDTAQLPPVGEELSPALFADALKGYGLEVREVDLTQVVRQIQESGILWNATQLRQLIAEDNCYSLPKIKITGFPDIKMVPGTELIDAITSCYDHDGMDETIVICRSNKRANLYNNGIRAQILWREDELNTGDMLMIAKNNYYWTEQYKEMDFIANGEIAVVRRVRKTREMYGFRFAEVTLRFPDQNDFELDANLLLDTLHSDSPALPKVDNDRLFYTILEDYADISNKRDRMKKMKADPHYNALQVKYAYAITCHKAQGGQWQNVFLDQGYMTDEYLTPDYFRWLYTAFTRATKTLYLVNYPKEQIL | not soluble |
| MSLAIRNVVFDVGNVIVKWAPQDIAQLTFGEGEESAFMATAVFKSEFWRDLNKGKYTEAEVKRALHQQLGLSSDTLEQLFFHIKNTQVLLPGTLQLMDDLLKAGYRLYALTDNVNEIVAYLKKQYGFWPKFTGAVVSSECGLLKPDPAIYQHLADSQRILPQESVFMDDMPANVEGARQQGFHAIQFVDAHQARVQLAQMGLHFKGQHFGEGHHHHHH | soluble |
| MNRDLPVLRALRSLPDKVVGEALVSNDAISMRYDVDASTGKVVRPSHDLYGQSISGKVLIFKNTKGGVATGWALLNLKSRGTAPIALVCDTTNPVFVQGAALAGLPIMDGFRESPRSAVRTGDVVELDGISGELKVLRRGAGGQLEHHHHHH | not soluble |
| MGSDKIHHHHHHMRSIVQNKVEECLEILKWDKTKWIDFWRELRRKFGPIVPNYERKLELNDEKIEKILREIERRELDRFKWDWLDVSRNKKIECAESLSEREDFLDLKREDFSVFLMSLLGLSDWVVVDGEKEKIVVMDVFSLWRKGLLRELSLATLHAVIEFRKGKEIGNYGGKKEYFDSLLKEIEKILKRGKEALGDLCEFLRNHVSYYDWVGFYFVEDGKLKLGPFVGEPTEHVEIPFGVGICGQAAEREETFVVQDVSKETNYLSCSPKTKAEIVVPIFKDGKIIGELDIDSYSPSPFSEEDRAFLEKVCELVSKVV | not soluble |
| SGNTSSERTGMGQEKANRRDSRGTKEGDRPKILMDSPEDADIFHGEDLKAPLEKEEFIEWRPDLEGSEKTDTLDRPTVFRWTGAGKEVYISGSFNNWTNKIPLIRSQNNFVAIVDLPEGEHQYKFYVDGLWTHDPTEPVVTNQLGTVNNIIQVKKTDFEVFDALMVDSQKCSDMSDLSSSPPGPYHQDAYTPKQEEKFKSPPILPPHLLQVILNKDTGISCDPALLPEPNHVMLNHLYALSIKDGVMVLSATHRYKKKYVTTLLYKPI | not soluble |
| MSLEIERYIVPKETWPEIIIPVEVQEYIGERKELNLAEELLDRNIREGRGRKVAVYFEDRRVTYRDLYRLSNKIANFLVGIGVQPYDRVGFRTRNMPEAIAVNFGIMKAGAIPVPLNPMWAGKEVSFVSNNAEIKALFVSGDERVFPAVNEVKDEIKTAKAMVVMDGEKEGFIPFSEVTAESAKFDPILLKIGTPALILYTSGTTGLPKGCVHFVENVISSVYLVGKHVWKLTPDDVVGGPAPVSFAMGYGNGCLIPYFHGAAASIWPRFSVENFFKYVEEHGITVFSSLPTSYRMILADPKLEEYMNKYDISSLRLFTGGGEALGAETAKRWKEVFGMDIYESLGATEMLHICIANACAPKPVAGSIGFPVPGYIAKIVDPETGKECGADEVGSLYIKGPTGIRYWNHPSRDLSEKQAKSVKNGWNVLGDFVRKDENGYIYFVSRDDDLIKSSGYRIGPDEIEQPLNTHPAVAECAVIGVPDPEGIRGQVVKAIIRLKEGYTPDEKLKEDILAFLEKHIAKYKLPRIIEFTDKPLPRTPTGKLLRRLLKQSEGHHHHHH | not soluble |
| MAQERPSCAVEPEHVQRLLLSSREAKKSAYCPYSRFPVGAALLTGDGRIFSGCNIENACYPLGVCAERTAIQKAISEGYKDFRAIAISSDLQEEFISPCGACRQVMREFGTDWAVYMTKPDGTFVVRTVQELLPASFGPEDLQKIQ | soluble |
| MSLKLLVLIDGSKWSQKAALHAFSIAKRKNAKVILFSVLDRREAKALAFHLSMRSDSLGKIKEFEETIWRETKKSVKEVITTLLELGRREGINCSFKIVEGSAKEEIIKEANSGKYSMVIMGAYGRSGKTRIGSLLEEVVGQIRIPVMIVREGHHHHHH | soluble |
| MQNDVFFDLTQHGFSEDEASQLMVYGQELELPTRHILSHQGEFSSHIYFILEGLCHASYLTEKGKEFSKEFYWEKDWVIGFESVIKGQPSPYLLETLTACHLFCLPIEALHQWRAEKHSIYLKLLETQLMNKENKERFMLLYSPEERYQLFCHHYPDLEQRITDSQIAAYLGITAISLSRIKARLAKDNK | not soluble |
| MGSDKIHHHHHHMSSNRCDDCHPAGIDDANRQPRLETAAKGGGEPAPSTANLPDAAHLPGGRIRIGISSCLLGNPVRFDGGHKFDPWVVNVLGAYLDFVPVCPEVECGMGIPREALRLVGDPSAPRLVTVKHGEDWTDRMRAWAERRVAELEGEGLCGYIFKRASPSSGMERVKVYPEFDPATGKSGGVPVQKGVGMFARAFIERFPLLPVEEEGRLNDPDLRENFIERLFVMRRWRQLLDDGLDTGGLVAFHTRHKLLMLAHSPQHYRTMGKLVAQAATYPRDELREAYQRLLMEGLRLRATPAKHVNVLQHIMGYFRKQLTPDEKQEMLEQIDLYRRALVPLVVPVTLLNHYVRKYGEKYLAGQFYLNPHPVELKLRNHV | not soluble |
| GMTKAREFLGTGWKFPVAAGADGAMVLSSAEEDIAESIRIILGTARGERVMRPDFGCGIHDRVFSVINTTTLGLIENEVKEALILWEPRIELLSVTASPREAAEGRLLIDIEYRVRSTNTRFNLVYPFYLKESA | soluble |
| VKIFERFRKACDEFFKKKGEFFKLLKEGMNANLEKKKALCEKAESLKDSTEWKETAEILTKLQKEWKTIGPVSKKYS | not soluble |
| GPGSMPPTHLLPTIDVSLRDKLSRFVESRGLLQMALEIATDDERRFDLAVQLKQLLLAHEIASAANVASHWKQVGDIALEQGYFEMAIESLEKCNDWSGLLLIYTSLNDMEAISRLGDRCLQRGQANLAFTCYHLTQRHAECVELLQKTGKTGDAAFYARTYYPSLIEDAVAKWRVSVASIPRVSQALASPAAYPNLFPSLRNVDLLPPKGSEADAPLNAQPPPPGASASLHGSCTAPTVADWFQPAAAAPQQLMHPPPLPDNVDSEPSGMQELADEEETWGED | soluble |
| MIMNQQLNATKKDKLQVIDWLIENFPNAFFKKGNQVKPLKIGIFDDLIDFYERLDTPPFSKKSLREALSYYSASPAYLSCQKPDTARVDIYGNEVDVVTPEQAKYAYQRYQERYGNKKSQELK | not soluble |
| MLNLCDEDFDAMELVEGALALNKAINPETQLEWAHIELARLLKEAELALVHERDEKARFEAFLRLFYQEWGFSGDREAYFDSRNAFIDQVLQRRKGIPVSLGSLLLYLGHKLGFPLNGISFPTQFLLSLNWSGERPIYLNPFNGEIVSQHTLQAWLVGHKGPLAKLKPQHLQSVDNPTIIGRWLALLKSALLREERYTLALRCTDLALTFVPDDPYEIRDRGFIYQQLQCHQIAISDYQYFIEHCPNDPAAELLKTQVNALSHDSQVTLHLEHHHHHH | soluble |
| MMRTVQLRTLRPCIRAQQQPVRPSTSATAAAATAPAPARKCPSSLFAKLGGREAVEAAVDKFYNKIVADPTVSTYFSNTDMKVQRSKQFAFLAYALGGASEWKGKDMRTAHKDLVPHLSDVHFQAVARHLSDTLTELGVPPEDITDAMAVVASTRTEVLNMPQQ | soluble |
| MGSDKIHHHHHHMNRLRTSFQQTTGQISGHGKRNVGVLKTAFAAVADEMASDQYGTGAIIEPFEQKFADVLGMDDAVFFPSGTMAQQVALRIWSDETDNRTVAYHPLCHLEIHEQDGLKELHPIETILVGAADRLMTLDEIKALPDIACLLLELPQREIGGVAPAFSELETISRYCRERGIRLHLDGARLFEMLPYYEKTAAEIAGLFDSIYISFYKGLGGIAGAILAGPAAFCQTARIWKRRYGGDLISLYPYIVSADYYYELRKDRMGQYYEQAKQLAEQFNALPGVHTTPEVPVSNMFHLHFDGQAADISPKLEQVQEETGLGFVGYLVDKDGYCSTEISVGDAYGELDQQTRDAGFARLRQAFS | not soluble |
| MQTSFCVLVSIIERMPTWNDIKVRNPQHSHNYAKRWENLEAEGNDINGEARLIDALVQRGSKILDAGCGQGRVGGYLSARGHIVTGIDIDDYLISEAEKKFPSATWHVGDLGSESIPDQGFDIAVCAGNVITFIEPDKQEAALAHIFEALRPNGRCIIGFGAGRGYVFPQFFEDARNVGFVIENNFESWGLNPLTNRSQFLVAFLRKPELEHHHHHH | not soluble |
